The labels stand for the following.
B1: Neurovirulence factor ICP34.5 (Human herpesvirus 1 (strain 17) (HHV-1)), P36313 (parent)
chain: MARRRRHRGPRRPRPPGPTGAVPTAQSQVTSTPNSEPAVRSAPAAAPPPPPAGGPPPSCSLLLRQWLHVPESASDDDDDDDWPDSPPPEPAPEARPTAAAPRPRPPPPGVGPGGGADPSHPPSRPFRLPPRLALRLRVTAEHLARLRLRRAGGEGAPEPPATPATPATPATPATPARVRFSPHVRVRHLVVWASAARLARRGSWARERADRARFRRRVAEAEAVIGPCLGPEARARALARGAGPANSV

The first experiment covers variants of B1. As to conditions: with pp1a_human PPP1CA.
On to R236D, for which the “effect of a mutation on the interaction” value is “decreasing interaction”.

In the next experiment the parent is B1. The following applies: with pp1a_human PPP1CA. The source holds these as a separate data set.
In the case of R234E, the “effect of a mutation on the interaction” value is listed as “decreasing interaction”.

The next experiment covers variants of B1. The following applies: with pp1a_human PPP1CA. The source holds these as a separate data set.
Consider V178E;F180L, for which the “effect of a mutation on the interaction” value is “decreasing interaction”.

In a further experiment the parent is B1. The following applies: with pp1a_human PPP1CA. The source holds these as a separate data set.
With V178E;F180L, the “effect of a mutation on the interaction” value is recorded as “disrupting interaction”.
